This data set deals with the molecule itself. In words: PFG-NMR translational diffusion.

B1: Sml1 (suppressor of Mec1 lethality), full length wild type (natural protein, S. cerevisiae, UniProt Q04964 1-104, looked up)
chain: MQNSQDYFYAQNRCQQQQAPSTLRTVTMAEFRRVPLPPMAEVPMLSTQNSMGSSASASASSLEMWEKDLEERLNSIDHDMNNNKFGSGELKSMFNQGKVEEMDF
As to B1, the Kd (commonly the equilibrium constant for the complex coming apart) is 93 ± 25 µM.

The values above are taken from paper PMC2747730 (Biochemistry, 2008).
